Test results as given in patent US10202593B2, “Evolved sortases and uses thereof” (President and Fellows of Harvard College, priority 2013, dated 2019).
Like-named read-outs stand apart in the source and are kept apart here.

B1: eSrtA (protein)
chain: QAKPQIPKDKSKVAGYIEIPDADIKEPVYPGPATREQLNRGVSFAEENESLDDQNISIAGHTFIDRPNYQFTNLKAAKKGSMVYFKVGNETRKYKMTSIRNVKPTAVEVLDEQKGKDKQLTLITCDDYNEETGVWETRKIFVATEVK
B2: eSrtA(2A-9): P94R, S102C, A104H, E105D, K138P, K152I, N160K, K162H, T164N, D165A, K173E, I182V, K190E, T196S (protein)
chain: QAKPQIPKDKSKVAGYIEIPDADIKEPVYPGPATREQLNRGVCFHDENESLDDQNISIAGHTFIDRPNYQFTNLKAAKPGSMVYFKVGNETRIYKMTSIRKVHPNAVEVLDEQEGKDKQLTLVTCDDYNEETGVWESRKIFVATEVK

System: LSETG
Assay: In vitro sortase kinetics HPLC assay, LSETG substrate
Type: biochemical
Protocol: See below for details on sortase expression and purification, and on the synthesis of Abz-LPETGK(Dnp)-CONH2 (SEQ ID NO: 19). […] Reactions were initiated with the addition of enzyme and incubated at 22.5° C. for 3 to 20 minutes before quenching with 0.5 volumes of 1 M HCl. Five to ten nmol of peptide from the quenched reactions were injected onto an analytical reverse-phase Eclipse XDB-C18 HPLC column (4.6×150 mm, 5 μm, Agilent Technologies) and chromatographed using a gradient of 10 to 65% acetonitrile with 0.1% TFA in 0.1% aqueous TFA over 13 minutes. Retention times under these conditions for the Abz-LPETGK(Dnp)-CONH2 (SEQ ID NO: 19) substrate, the released GKDnp peptide, and the Abz-LPETGGG-COOH (SEQ ID NO: 20) product were 12.8, 10.4, and 9.1 min, respectively. To calculate the percent conversion, the ratio of the integrated areas of the Abz-LPETGGG-COOH (SEQ ID NO: 20) and Abz-LPETGK(Dnp)-CONH2 (SEQ ID NO: 19) peptide Abs220 peaks was compared to a standard curve generated by mixing the product and starting peptide in known ratios. To determine […] and Km, reaction rates were fit to the Michaelis-Menten equation using OriginPro 7.0 software. All kinetics values reported represent the average of at least three measurements. Percent conversion was also calculated by using the ratio of the integrated areas of the GK(Dnp)-CONH2 and Abz-LPETGK(Dnp)-CONH2 peptide Abs355 peaks were compared directly (Example 5). To determine kcat and Km, LPETG, reaction rates were fit to the Michaelis-Menten equation using Microsoft Excel using the Solver add-in. To determine Km,GGG and KH, reaction rates were fit to the modified Michaelis-Menten, for which KH is as defined when KH<<Km,GGG.
Assays to determine eSrtA, eSrtA(2A-9) and eSrtA(4S-9) specificity were performed by preparing 10 μM stocks of Abz-LXEXGK(Dnp) (SEQ ID NO: 75) peptides in 300 mM Tris pH 7.5, 150 mM NaCl, 5 mM CaCl2, 5% v/v DMSO, and 100 mM Gly-Gly-Gly-COOH (GGG). Reactions were performed by adding eSrtA(2A-9) to a final concentration of 450 nM, eSrtA(4S-9) to a final concentration of 115 nM or eSrtA to a final concentration of 47.5 nM and a final volume of 100 μL, then incubating at 22.5° C. for 15 minutes. Reactions were quenched by the addition of 0.2 volumes of 5 M HCl, then were injected onto an analytical reverse-phase Eclipse XDB-C18 HPLC column (4.6×150 mm, 5 μm, Agilent Technologies) and chromatographed using a gradient of 10 to 65% acetonitrile with 0.1% TFA in 0.1% aqueous TFA over 13 minutes. Retention times under these conditions for the Abz-LPETGK(Dnp)-CONH2 (SEQ ID NO: 19) substrate, the released GKDnp peptide, and the Abz-LPETGGG-COOH (SEQ ID NO: 20) product were 12.8, 10.4, and 9.1 min, respectively, while the remaining Abz-LXEXGK(Dnp)-CONH2 (SEQ ID NO: 74) substrates varied in retention time between 9 and 13 minutes. To calculate the percent conversion, the ratio of the integrated areas of the GK(Dnp)-CONH2 and Abz-LPETGK(Dnp)-CONH2 (SEQ ID NO: 19) peptide Abs355 peaks were compared directly. Subsequent determination of kcat/Km and KH were performed as described for in vitro SrtA characterization.
The original pentamutant comprising the mutations P94R, D160N, D165A, K190E, and K196T is referred to as eSrtA. Sortase variants herein were evolved using eSrtA as the parent enzyme in the evolution experiments. In some cases, an evolved sortase comprises a N160K mutation instead of a D160N or a T196S mutation instead of a K196T. Parameters are reported with their standard deviations as determined from three technical replicates. kcat, Km and kcat/Km parameters were determined at 100 mM GGG concentration, while Km,GGG and KH parameters were determined at 1 mM concentration of the listed substrate.

[1] = Sub LSETG, 100 mM GGG, read-out: Km

| Molecule | KH (1 mM LSETG) | Km (1 mM LSETG, read-out: Km,GGG) | Kcat (Hz) (Sub LSETG, 100 mM GGG) | Km [1] |
| --- | --- | --- | --- | --- |
| B1 | 37.4 ± 3.4 µM | 337 ± 16 µM | 0.102 ± 0.001 Hz | 533 ± 24 µM |
| B2 | 26.0 ± 3.4 µM | 1270 ± 200 µM | 0.115 ± 0.007 Hz | 331 ± 67 µM |
